Values joined by “and” are separate entries in the source; they are usually repeats but may differ in a detail not shown here. Equal values may be shown once. Bridge positions count the residues as written; N and C are the ends. Ends that are not written are not given here. * marks the point of attachment. 5FAM = O=C1OC2(c3ccc(O)cc3Oc3cc(O)ccc32)c2ccc(C(=O)*)cc21
What was measured:
NPR‐C = details: literature value in Table 2; read-out: K i, literature; cited from earlier work
Description: Table 2 Summary of control peptide FP analyses | column: K i (competitive; nM)

[1] = target: T1, extracellular domain (ECD) NPR‐C (27–481)‐6His (Homo sapiens, UniProt P17342); assay: Surface plasmon resonance, immobilized extracellular domain NPR‐C; type: binding; details: SPR, experimentally observed R max as percentage of theoretical R max (quality control), each table line a separate run
T1 construct: extracellular domain (ECD) NPR‐C (27–481)‐6His; 6His (C); purchased Peak Proteins, UK
T1 sequence (P17342 27-481): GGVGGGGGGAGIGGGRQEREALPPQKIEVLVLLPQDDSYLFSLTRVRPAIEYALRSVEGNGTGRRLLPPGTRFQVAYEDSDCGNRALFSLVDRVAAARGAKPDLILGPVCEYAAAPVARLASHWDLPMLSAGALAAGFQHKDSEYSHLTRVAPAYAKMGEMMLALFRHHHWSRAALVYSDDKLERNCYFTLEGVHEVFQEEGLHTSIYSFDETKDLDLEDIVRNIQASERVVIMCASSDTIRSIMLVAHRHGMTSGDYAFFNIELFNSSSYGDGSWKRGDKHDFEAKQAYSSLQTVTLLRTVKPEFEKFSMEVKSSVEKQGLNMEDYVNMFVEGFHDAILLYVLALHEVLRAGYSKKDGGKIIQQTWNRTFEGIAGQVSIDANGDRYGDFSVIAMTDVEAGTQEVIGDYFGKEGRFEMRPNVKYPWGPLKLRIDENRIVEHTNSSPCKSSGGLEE

[2] = target: T2, Human full‐length (FL) NPR‐C (27–541)‐10His‐Flag (Homo sapiens, UniProt P17342); assay: Surface plasmon resonance, immobilized full‐length NPR‐C; type: binding; details: SPR, experimentally observed R max as percentage of theoretical R max (quality control), each table line a separate run
T2 construct: Human full‐length (FL) NPR‐C (27–541)‐10His‐Flag; 10His (C); Flag (C); purchased Peak Proteins, UK
T2 sequence (P17342 27-541): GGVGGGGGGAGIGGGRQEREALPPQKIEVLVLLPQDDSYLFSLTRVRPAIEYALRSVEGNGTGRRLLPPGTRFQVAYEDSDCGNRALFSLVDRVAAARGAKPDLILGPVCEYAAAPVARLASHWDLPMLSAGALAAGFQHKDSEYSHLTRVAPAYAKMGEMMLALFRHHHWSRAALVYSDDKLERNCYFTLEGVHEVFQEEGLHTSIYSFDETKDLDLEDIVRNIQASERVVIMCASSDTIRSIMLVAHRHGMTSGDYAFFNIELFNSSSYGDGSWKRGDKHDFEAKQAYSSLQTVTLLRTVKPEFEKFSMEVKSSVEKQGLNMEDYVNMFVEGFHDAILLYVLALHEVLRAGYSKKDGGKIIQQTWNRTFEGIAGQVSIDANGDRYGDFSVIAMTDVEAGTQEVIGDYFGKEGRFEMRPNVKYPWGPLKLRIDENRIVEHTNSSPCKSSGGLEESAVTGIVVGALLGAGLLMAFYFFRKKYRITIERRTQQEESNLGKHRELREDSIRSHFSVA

FL NPR‐C = target: T3, FL NPR‐C (Homo sapiens, UniProt P17342); assay: Thermal shift assay (Protein Thermal Shift Dye Kit); type: binding; details: for ΔTm: FL NPR‐C 0.1 mg/ml, 1× dye, ramp 25–99°C, T m mean across four replicates
T3 construct: Human full‐length (FL) NPR‐C (27–541)‐10His‐Flag; 10His (C); Flag (C); purchased Peak Proteins, UK
T3 sequence (P17342 27-541): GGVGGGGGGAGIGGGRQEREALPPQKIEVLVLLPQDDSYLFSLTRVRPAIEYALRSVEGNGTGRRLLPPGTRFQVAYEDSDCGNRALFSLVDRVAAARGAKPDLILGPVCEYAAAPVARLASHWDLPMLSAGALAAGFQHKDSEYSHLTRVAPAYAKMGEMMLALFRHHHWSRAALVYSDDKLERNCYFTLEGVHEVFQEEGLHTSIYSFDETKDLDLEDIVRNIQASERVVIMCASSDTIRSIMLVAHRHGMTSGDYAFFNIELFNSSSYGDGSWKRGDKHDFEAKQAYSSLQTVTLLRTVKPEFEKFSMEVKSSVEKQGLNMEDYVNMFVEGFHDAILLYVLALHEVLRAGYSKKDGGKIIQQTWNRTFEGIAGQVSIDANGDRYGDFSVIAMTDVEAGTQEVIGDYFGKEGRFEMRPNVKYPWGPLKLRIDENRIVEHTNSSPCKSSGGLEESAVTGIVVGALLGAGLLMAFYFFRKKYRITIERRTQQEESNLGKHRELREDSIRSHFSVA
Protocol: Thermal shift assays were performed using Thermo Fisher Scientific Protein Thermal Shift™ Dye Kit, and samples were prepared according to the accompanying protocol.17 A solution of Protein Thermal Shift™ Dye was always prepared fresh from the 1,000× stock. Optimization experiments were performed by titrating NPR‐C protein (0.1, 0.05 and 0.01 mg/ml) and Protein Thermal Shift™ Dye concentration (80, 8 and 1×) to identify conditions that achieved melt curves with the greatest dynamic fluorescence range and least standard error in T m (melt temperature) values. […] The total volume for each reaction was 20.0 μl. Each melt reaction was mixed at least 10 times, and the plate was sealed with MicroAmp® Optical Adhesive Film. The plate was then spun it at 112 g for 1 min and placed on ice until measurement. Thermal melt reactions were performed and analysed using a 7500 Real‐Time PCR System®. A 5‐carboxy‐X‐rhodamine (ROX) reporter and a continuous temperature ramp of 25–99°C were used (2 min per step). Optical filters were set at 580 nm (excitation) and 623 nm (emission). The T m for each sample was obtained by differentiating the original fluorescence melt curve using OriginPro mathematical and peak identification functions. The reported T m values are the mean across four replicates.

[3] = target: T4, Human full-length (FL) NPR-C (27–541)-10His-Flag (human, UniProt P17342-2 27-540); assay: SPR; steady-state affinity analysis of Flu-P19 on immobilised FL NPR-C; details: both partners purified
T4 construct: natriuretic peptide receptor C (NPR-C), human, residues 27-541; Primarily a disulphide-bonded dimer (~130 kDa) on non-reducing SDS-PAGE; The tag's end is read from the construct's name (27–541)-10His-Flag; also called natriuretic peptide receptor C; natriuretic peptide receptor type-C; source: expressed and isolated at Peak Proteins, UK; not shown: 10His, C-terminal, kept; Flag, C-terminal, kept
T4 sequence (looked up): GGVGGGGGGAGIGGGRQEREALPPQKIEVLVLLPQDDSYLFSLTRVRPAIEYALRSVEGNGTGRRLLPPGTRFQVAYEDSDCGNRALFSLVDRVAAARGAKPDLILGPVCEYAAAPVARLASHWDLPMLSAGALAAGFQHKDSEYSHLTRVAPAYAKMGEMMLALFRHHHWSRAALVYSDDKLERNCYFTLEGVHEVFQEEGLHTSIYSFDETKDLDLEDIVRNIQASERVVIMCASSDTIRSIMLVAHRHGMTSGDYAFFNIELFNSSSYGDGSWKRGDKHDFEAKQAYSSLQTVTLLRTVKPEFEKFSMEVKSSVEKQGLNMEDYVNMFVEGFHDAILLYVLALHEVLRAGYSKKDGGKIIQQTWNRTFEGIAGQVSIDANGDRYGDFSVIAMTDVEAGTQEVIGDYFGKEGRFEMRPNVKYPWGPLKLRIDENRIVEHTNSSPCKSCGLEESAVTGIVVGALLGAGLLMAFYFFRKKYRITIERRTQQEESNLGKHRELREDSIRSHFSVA

[4] = target: T4, Human full-length (FL) NPR-C …; assay: thermal shift; Protein Thermal Shift Dye Kit; FL NPR-C 0.1 mg/ml, 1x dye; ligand at 1:1 or 10:1 ratio to the protein; ramp 25-99°C; Tm mean of four replicates; details: both partners purified
[5] = target: T4, Human full-length (FL) NPR-C …; assay: fluorescence polarisation; competition against 15 nM Flu-P19 probe; FL NPR-C 150 nM or ECD NPR-C 400 nM; competitor 4.89 nM-2.5 uM; HEPES buffer, 3% DMSO; Ki computed from IC50 with a web-based converter; details: both partners purified
[6] = target: T4, Human full-length (FL) NPR-C …; assay: as above; details: both partners purified; remark: listed apart in the source
[7] = target: T5, extracellular domain (ECD) NPR-C (27–481)-6His (human, UniProt P17342-2 27-481); assay: as above; details: both partners purified
T5 construct: natriuretic peptide receptor C (NPR-C), human, extracellular domain, residues 27-481; Mainly monomer (~55 kDa) on non-reducing SDS-PAGE; the discussion says ~25% of the molecules are disulphide-bonded; The tag's end is read from the construct's name; also called (27–481)-6His (ECD); extracellular NPR-C; source: expressed and isolated at Peak Proteins, UK; not shown: 6His, C-terminal, kept
T5 sequence (looked up): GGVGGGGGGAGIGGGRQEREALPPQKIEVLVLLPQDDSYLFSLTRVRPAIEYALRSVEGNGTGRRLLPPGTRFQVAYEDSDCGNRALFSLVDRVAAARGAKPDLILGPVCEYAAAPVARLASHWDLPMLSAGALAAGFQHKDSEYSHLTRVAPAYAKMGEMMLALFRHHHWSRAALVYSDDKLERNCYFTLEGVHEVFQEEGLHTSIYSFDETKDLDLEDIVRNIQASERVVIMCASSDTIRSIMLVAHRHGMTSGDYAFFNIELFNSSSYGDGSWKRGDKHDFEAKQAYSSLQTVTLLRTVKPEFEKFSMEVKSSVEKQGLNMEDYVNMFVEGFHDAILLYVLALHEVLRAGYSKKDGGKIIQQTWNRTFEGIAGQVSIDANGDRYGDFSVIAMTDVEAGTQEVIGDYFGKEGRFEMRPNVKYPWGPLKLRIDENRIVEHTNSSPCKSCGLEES

Molecule: C‐type natriuretic peptide [CNP]
- Ki (NPR‐C): 0.023 nM
- % theoretical R max [1]: 51%
- % theoretical R max [2]: 31%
- ΔTm, approximate shift given in text (FL NPR‐C; FL NPR‐C, ratio not stated in the sentence (Figure 9c,d)): ~ 11 °C
- ΔTm (FL NPR‐C; NPRC + ligand (1:1)): +8.2 °C
- ΔTm (FL NPR‐C; NPRC + ligand (1:10)): +11.7 °C

B1: 5-carboxyfluorescein N-terminus labelled GLSKG[CFGRSLDRIGSLSGLGC]NS (Flu-P19) (peptide)
peptide: 5FAM-GLSKGCFGRSLDRIGSLSGLGCNS
modifications: not fully specified (bridges); cysteine pairing not given here
notes: P19, a peptide identified by phage display (Deschênes et al., cited); also called Flu-P19 probe; source: synthetic peptide, bought: Peptide Protein Research Ltd, UK
- Kd [3]: ~10 nM

Molecule: GLSKGCFGLKLDRIGSMSGLGC (ligand, disulfide 6-22 (inferred)) [C-type natriuretic peptide]
- ΔTm [4]: ~11 °C
- IC50 [5]: 142 nM
- Ki [5]: 0.49 nM
- IC50 [6]: 68.4 nM and 142 nM and 111 nM
- Ki [6]: 0.1 nM
- Ki [7]: 0.1 nM
